Experimental data published in patent publication US20230012273A1 (Boehringer Ingelheim, published 2023).

How the values were obtained:
[1] = target: T1, full-length cynomolgus SIRPβ1 (XP_005568598) on CHO cells, clone PA2 (cynomolgus monkey); assay: flow cytometry, CHO cells
T1 construct: whole, on cells; also called SIRPβ1 XP_005568598 Clone PA2
Method: Antibody binding to cells expressing full-length cynomolgus SIRPβ1 (XP_005568598) and SIRPβ1v3 (XP_005568593) is evaluated by flow cytometry. SIRPβ1- or SIRPβ1V3-expressing CHO cells are blocked with donkey IgG and incubated on ice with increasing concentrations of antibodies for 60 minutes, washed and stained with AF647-conjugated donkey F(ab′)₂ anti-human IgG secondary reagent. Cells are washed, fixed, and analyzed by flow cytometry. Median fluorescent intensity is determined and used as a measure of antibody binding.

[2] = target: T2, full-length human SIRPαV1 (NP_542970.1) on cells (human, UniProt P78324 31-504); assay: flow cytometry, Expi-CHO cells
T2 construct: one molecule for CHO-K1 and Expi-CHO transfectants (NP_542970.1) and for endogenous V1 on U-937 cells and on CD14+ monocytes of V1/V1 donors; also called CHO-hSIRPαV1; αV1 WT
Method: (§1) Expi-CHO parental cells are transduced with lentiviruses containing either full-length wild-type human SIRPαV1 allele (NP_542970.1) or full-length human SIRPαV1 with amino acid point mutations (Table 56) and sorted to achieve matching expression levels. These cells are blocked with donkey IgG and incubated on ice with increasing concentrations of antibodies for 60 minutes, washed and stained with AF647-conjugated donkey F(ab′)₂ anti-human IgG antibodies. Stained cells are washed, fixed, and analyzed by flow cytometry. Median fluorescent intensity is determined and used as a measure of antibody binding.

[3] = target: T3, full-length human SIRPαV1 N→E on Expi-CHO cells (human, UniProt P78324 31-504); assay: flow cytometry, Expi-CHO cells
T3 construct: the entry already carries the change (TKRN to TKRE)
Method: as §1

[4] = target: T4, full-length human SIRPαV1 D→E on Expi-CHO cells (human, UniProt P78324 31-504); assay: flow cytometry, Expi-CHO cells
T4 construct: the entry already carries the change (PDDV to PEDV)
Method: as §1

[5] = target: T5, full-length human SIRPαV2 (CAA71403.1) on cells (human, UniProt P78324 31-504); assay: flow cytometry, Expi-CHO cells
T5 construct: one molecule for CHO-K1 and Expi-CHO transfectants (CAA71403.1) and for endogenous V2 on THP-1 cells and on CD14+ monocytes of V2/V2 donors; also called CHO-hSIRPαV2; αV2 WT
Method: as §1, with “SIRPαV2” for “SIRPαV1”, “(CAA71403.1)” for “(NP_542970.1)”, “58)” for “56)”

[6] = target: T6, full-length human SIRPαV2 E→N on Expi-CHO cells (human, UniProt P78324 31-504); assay: flow cytometry, Expi-CHO cells
T6 construct: the entry already carries the change (TKRE to TKRN)
Method: as §1, with “SIRPαV2” for “SIRPαV1”, “(CAA71403.1)” for “(NP_542970.1)”, “58)” for “56)”

[7] = target: T7, full-length human SIRPαV2 D→E on Expi-CHO cells (human, UniProt P78324 31-504); assay: flow cytometry, Expi-CHO cells
T7 construct: the entry already carries the change (SPDT to SPET)
Method: as §1, with “SIRPαV2” for “SIRPαV1”, “(CAA71403.1)” for “(NP_542970.1)”, “58)” for “56)”

[8] = target: T8, full-length human SIRPβL H→D on Expi-CHO cells (human, UniProt Q5TFQ8 30-398); assay: flow cytometry, Expi-CHO cells
T8 construct: the entry already carries the change (PDHV to PDDV); also called βL WT H→D
Method: Expi-CHO parental cells are transduced with lentiviruses containing either full-length wild-type human SIRPβL (Q5TFQ8) or full-length human SIRPβL with a single amino acid point mutation (Table 62) and sorted to achieve matching expression levels. These cells are blocked with donkey IgG and incubated on ice with increasing concentrations of antibodies for 60 minutes, washed and stained with AF647-conjugated donkey F(ab′)₂ anti-human IgG antibodies. Stained cells are washed, fixed, and analyzed by flow cytometry. Median fluorescent intensity is determined and used as a measure of antibody binding.
A single amino acid substitution (H→D) introduced within the loop region maintained, strengthened, or facilitated antibody binding to these cells (FIG. 34B, Table 63).

[9] = target: T2, full-length human SIRPαV1 (NP_542970.1) …; assay: flow cytometry, CD14+ monocytes V1V1
Outline: (§2)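 PBMCs from donors homozygous for SIRPα V1 or V2 were blocked with donkey IgG and incubated on ice for 60 minutes with increasing antibody concentrations. Bound antibody detected with AF647 donkey F(ab′)₂ anti-human IgG. Median fluorescence intensity of CD14+ cells served as the binding measure.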

[10] = target: T5, full-length human SIRPαV2 (CAA71403.1) …; assay: flow cytometry, CD14+ monocytes V2V2
Outline: as §2

[11] = target: T2, full-length human SIRPαV1 (NP_542970.1) …; assay: flow cytometry, competition with CD47 tetramer, monocytes V1V1
Method: Cells are washed, fixed, and analyzed by flow cytometry. Median fluorescent intensity of CD14+gated population is determined and used as a measure of CD47 binding.

B1: Anti-SIRPα antibody KWAR23 (antibody, V domains shown)
VH: EVQLQQSGAELVKPGASVKLSCTASGFNIKDYYIHWVQQRTEQGLEWIGRIDPEDGETKYAPKFQDKATITADTSSNTAYLHLSSLTSEDTAVYYCARWGAYWGQGTLVTVSS
VL: QIVLTQSPAIMSASPGEKVTLTCSASSSVSSSYLYWYQQKPGSSPKLWIYSTSNLASGVPARFSGSGSGTSYSLTISSMEAEDAASYFCHQWSSYPRTFGAGTKLELK
- EC50 [1]: 0.2 nM
- EC50 [2]: 0.3 nM
- EC50 [3]: 0.5 nM
- EC50 [4]: 0.2 nM
- EC50 [5]: 0.2 nM
- EC50 [6]: 0.2 nM
- EC50 [7]: 0.2 nM
- EC50 [8]: 0.5 nM
- EC50 [9]: 0.2 nM
- EC50 [10]: 0.1 nM
- IC50 [11]: 0.07 nM
